Assay results as given in patent US20150374794A1 (Novo Nordisk, published 2015).
Numbered stars: 1 amine (or outer) side, 2 acyl side, 3 side chain; on linkers, the order of the positions; unused ones are H or OH. Square brackets hold non-standard residues; d marks the D form. Side chains are listed from the residue outwards. Ends that are not written are not given here. * marks the point of attachment. C18 diacid = O=C(O)CCCCCCCCCCCCCCCCC(=O)*; γGlu = O=C(O)[C@H](CCC(=O)[*:2])N[*:1]; Ac4c = NC1(C(=O)O)CCC1; AEEA = NCCOCCOCC(=O)O; Aib = CC(C)(N)C(=O)O

How the values were obtained:
human glucagon receptor [1] = biological target: T1, human glucagon receptor (human, UniProt P47871 26-477); assay: displacement of 125I-glucagon, membranes with human glucagon receptor, SPA
T1 construct: whole, on cells; the potency assay used whole cells (clone pLJ6'-4-25); also called GlucR; hGCGR
Protocol: (§1) The receptor binding of each compound to the human glucagon receptor was measured in a displacement binding assay. […] Each derivative was added in a series of concentrations to isolated membranes containing the human glucagon receptor and displacement of the labelled ligand is monitored. The receptor binding was reported as the concentration at which half of the labelled ligand is displaced from the receptor, the IC₅₀ value.

human GLP-1 receptor [2] = biological target: T2, human GLP-1 receptor (human, UniProt P43220 24-463); assay: displacement of 125I-GLP-1(7-36)NH2, membranes with human GLP-1R, SPA
T2 construct: whole, on cells; the potency assay used whole cells (clone FCW467-12A/KZ10-1)
Protocol: as §1, with “human GLP-1” for “human glucagon”, “ligand was” for “ligand is”

human glucagon receptor [3] = biological target: T1, human glucagon receptor; assay: cell-based or functional assay
human GLP-1 receptor [4] = biological target: T2, human GLP-1 receptor; assay: cell-based or functional assay

T1 sequence (P47871 26-477): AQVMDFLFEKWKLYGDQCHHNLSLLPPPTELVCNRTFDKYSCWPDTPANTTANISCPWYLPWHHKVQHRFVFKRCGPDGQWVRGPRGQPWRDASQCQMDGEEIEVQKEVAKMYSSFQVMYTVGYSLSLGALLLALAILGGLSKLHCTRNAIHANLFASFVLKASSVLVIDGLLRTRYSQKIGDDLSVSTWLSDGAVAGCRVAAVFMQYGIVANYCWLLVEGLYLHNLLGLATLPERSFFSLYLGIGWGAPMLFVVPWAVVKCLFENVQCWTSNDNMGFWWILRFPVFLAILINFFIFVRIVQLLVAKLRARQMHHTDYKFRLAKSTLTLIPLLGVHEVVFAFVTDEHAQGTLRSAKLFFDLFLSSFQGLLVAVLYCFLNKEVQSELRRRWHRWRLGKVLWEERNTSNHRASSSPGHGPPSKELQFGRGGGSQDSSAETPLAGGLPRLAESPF

Binder	IC50 (human glucagon receptor [1])	IC50 (human GLP-1 receptor [2])	EC50 GlucR, CRE luciferase reporter gene assay in BHK cells (human glucagon receptor [3])	EC50 GLP-1R, CRE luciferase reporter gene assay in BHK cells (human GLP-1 receptor [4])
H[Aib]QGTFTSDLSKYLDK([γGlu-γGlu-AEEA-AEEA-γGlu-C18 diacid])RRAREFVQWLLNT-NH2 (N-terminus assumed; SMILES CC(C)C[C@H](NC(=O)[C@H](Cc1ccc(O)cc1)NC(=O)[C@H](CCCCN)NC(=O)[C@H](CO)NC(=O)[C@H](CC(C)C)NC(=O)[C@H](CC(=O)O)NC(=O)[C@H](CO)NC(=O)[C@@H](NC(=O)[C@H](Cc1ccccc1)NC(=O)[C@@H](NC(=O)CNC(=O)[C@H](CCC(N)=O)NC(=O)C(C)(C)NC(=O)[C@@H](N)Cc1c[nH]cn1)[C@@H](C)O)[C@@H](C)O)C(=O)N[C@@H](CC(=O)O)C(=O)N[C@@H](CCCCNC(=O)CC[C@H](NC(=O)CC[C@H](NC(=O)COCCOCCNC(=O)COCCOCCNC(=O)CC[C@H](NC(=O)CCCCCCCCCCCCCCCCC(=O)O)C(=O)O)C(=O)O)C(=O)O)C(=O)N[C@@H](CCCNC(=N)N)C(=O)N[C@@H](CCCNC(=N)N)C(=O)N[C@@H](C)C(=O)N[C@@H](CCCNC(=N)N)C(=O)N[C@@H](CCC(=O)O)C(=O)N[C@@H](Cc1ccccc1)C(=O)N[C@H](C(=O)N[C@@H](CCC(N)=O)C(=O)N[C@@H](Cc1c[nH]c2ccccc12)C(=O)N[C@@H](CC(C)C)C(=O)N[C@@H](CC(C)C)C(=O)N[C@@H](CC(N)=O)C(=O)N[C@H](C(N)=O)[C@@H](C)O)C(C)C)	1.2 nM	0.5 nM	42.3 pM	9.2 pM
H[Aib]QGTFTSDLSKYLDK([γGlu-γGlu-AEEA-γGlu-γGlu-C18 diacid])RRAQEFVQWLLNT-NH2 (N-terminus assumed; SMILES CC(C)C[C@H](NC(=O)[C@H](Cc1ccc(O)cc1)NC(=O)[C@H](CCCCN)NC(=O)[C@H](CO)NC(=O)[C@H](CC(C)C)NC(=O)[C@H](CC(=O)O)NC(=O)[C@H](CO)NC(=O)[C@@H](NC(=O)[C@H](Cc1ccccc1)NC(=O)[C@@H](NC(=O)CNC(=O)[C@H](CCC(N)=O)NC(=O)C(C)(C)NC(=O)[C@@H](N)Cc1c[nH]cn1)[C@@H](C)O)[C@@H](C)O)C(=O)N[C@@H](CC(=O)O)C(=O)N[C@@H](CCCCNC(=O)CC[C@H](NC(=O)CC[C@H](NC(=O)COCCOCCNC(=O)CC[C@H](NC(=O)CC[C@H](NC(=O)CCCCCCCCCCCCCCCCC(=O)O)C(=O)O)C(=O)O)C(=O)O)C(=O)O)C(=O)N[C@@H](CCCNC(=N)N)C(=O)N[C@@H](CCCNC(=N)N)C(=O)N[C@@H](C)C(=O)N[C@@H](CCC(N)=O)C(=O)N[C@@H](CCC(=O)O)C(=O)N[C@@H](Cc1ccccc1)C(=O)N[C@H](C(=O)N[C@@H](CCC(N)=O)C(=O)N[C@@H](Cc1c[nH]c2ccccc12)C(=O)N[C@@H](CC(C)C)C(=O)N[C@@H](CC(C)C)C(=O)N[C@@H](CC(N)=O)C(=O)N[C@H](C(N)=O)[C@@H](C)O)C(C)C)	5.9 nM	1.4 nM	58.8 pM	26.6 pM
H[Aib]QGTFTSDLSKYLESRRARDFVQWLLK([AEEA-AEEA-γGlu-γGlu-γGlu-C18 diacid])T-NH2 (N-terminus assumed; SMILES CC(C)C[C@H](NC(=O)[C@H](Cc1ccc(O)cc1)NC(=O)[C@H](CCCCN)NC(=O)[C@H](CO)NC(=O)[C@H](CC(C)C)NC(=O)[C@H](CC(=O)O)NC(=O)[C@H](CO)NC(=O)[C@@H](NC(=O)[C@H](Cc1ccccc1)NC(=O)[C@@H](NC(=O)CNC(=O)[C@H](CCC(N)=O)NC(=O)C(C)(C)NC(=O)[C@@H](N)Cc1c[nH]cn1)[C@@H](C)O)[C@@H](C)O)C(=O)N[C@@H](CCC(=O)O)C(=O)N[C@@H](CO)C(=O)N[C@@H](CCCNC(=N)N)C(=O)N[C@@H](CCCNC(=N)N)C(=O)N[C@@H](C)C(=O)N[C@@H](CCCNC(=N)N)C(=O)N[C@@H](CC(=O)O)C(=O)N[C@@H](Cc1ccccc1)C(=O)N[C@H](C(=O)N[C@@H](CCC(N)=O)C(=O)N[C@@H](Cc1c[nH]c2ccccc12)C(=O)N[C@@H](CC(C)C)C(=O)N[C@@H](CC(C)C)C(=O)N[C@@H](CCCCNC(=O)COCCOCCNC(=O)COCCOCCNC(=O)CC[C@H](NC(=O)CC[C@H](NC(=O)CC[C@H](NC(=O)CCCCCCCCCCCCCCCCC(=O)O)C(=O)O)C(=O)O)C(=O)O)C(=O)N[C@H](C(N)=O)[C@@H](C)O)C(C)C)	19 nM	0.2 nM	129 pM	3 pM
H[Aib]QGTFTSDLSKYLDARRARDFVQWLLK([AEEA-AEEA-γGlu-γGlu-γGlu-C18 diacid])T-NH2 (N-terminus assumed; SMILES CC(C)C[C@H](NC(=O)[C@H](Cc1ccc(O)cc1)NC(=O)[C@H](CCCCN)NC(=O)[C@H](CO)NC(=O)[C@H](CC(C)C)NC(=O)[C@H](CC(=O)O)NC(=O)[C@H](CO)NC(=O)[C@@H](NC(=O)[C@H](Cc1ccccc1)NC(=O)[C@@H](NC(=O)CNC(=O)[C@H](CCC(N)=O)NC(=O)C(C)(C)NC(=O)[C@@H](N)Cc1c[nH]cn1)[C@@H](C)O)[C@@H](C)O)C(=O)N[C@@H](CC(=O)O)C(=O)N[C@@H](C)C(=O)N[C@@H](CCCNC(=N)N)C(=O)N[C@@H](CCCNC(=N)N)C(=O)N[C@@H](C)C(=O)N[C@@H](CCCNC(=N)N)C(=O)N[C@@H](CC(=O)O)C(=O)N[C@@H](Cc1ccccc1)C(=O)N[C@H](C(=O)N[C@@H](CCC(N)=O)C(=O)N[C@@H](Cc1c[nH]c2ccccc12)C(=O)N[C@@H](CC(C)C)C(=O)N[C@@H](CC(C)C)C(=O)N[C@@H](CCCCNC(=O)COCCOCCNC(=O)COCCOCCNC(=O)CC[C@H](NC(=O)CC[C@H](NC(=O)CC[C@H](NC(=O)CCCCCCCCCCCCCCCCC(=O)O)C(=O)O)C(=O)O)C(=O)O)C(=O)N[C@H](C(N)=O)[C@@H](C)O)C(C)C)	2.6 nM	0.2 nM	11.3 pM	4.3 pM
H[Ac4c]QGTFTSDLSKYLESRRAQDFVQWLLK([AEEA-AEEA-γGlu-γGlu-γGlu-C18 diacid])T-NH2 (N-terminus assumed; SMILES CC(C)C[C@H](NC(=O)[C@H](Cc1ccc(O)cc1)NC(=O)[C@H](CCCCN)NC(=O)[C@H](CO)NC(=O)[C@H](CC(C)C)NC(=O)[C@H](CC(=O)O)NC(=O)[C@H](CO)NC(=O)[C@@H](NC(=O)[C@H](Cc1ccccc1)NC(=O)[C@@H](NC(=O)CNC(=O)[C@H](CCC(N)=O)NC(=O)C1(NC(=O)[C@@H](N)Cc2c[nH]cn2)CCC1)[C@@H](C)O)[C@@H](C)O)C(=O)N[C@@H](CCC(=O)O)C(=O)N[C@@H](CO)C(=O)N[C@@H](CCCNC(=N)N)C(=O)N[C@@H](CCCNC(=N)N)C(=O)N[C@@H](C)C(=O)N[C@@H](CCC(N)=O)C(=O)N[C@@H](CC(=O)O)C(=O)N[C@@H](Cc1ccccc1)C(=O)N[C@H](C(=O)N[C@@H](CCC(N)=O)C(=O)N[C@@H](Cc1c[nH]c2ccccc12)C(=O)N[C@@H](CC(C)C)C(=O)N[C@@H](CC(C)C)C(=O)N[C@@H](CCCCNC(=O)COCCOCCNC(=O)COCCOCCNC(=O)CC[C@H](NC(=O)CC[C@H](NC(=O)CC[C@H](NC(=O)CCCCCCCCCCCCCCCCC(=O)O)C(=O)O)C(=O)O)C(=O)O)C(=O)N[C@H](C(N)=O)[C@@H](C)O)C(C)C)	7.7 nM	0.8 nM	24 pM	7 pM
H[Aib]QGTFTSDLSRYLDARRAQDFVQWLLK([AEEA-AEEA-γGlu-γGlu-γGlu-C18 diacid])T-NH2 (N-terminus assumed; SMILES CC(C)C[C@H](NC(=O)[C@H](Cc1ccc(O)cc1)NC(=O)[C@H](CCCNC(=N)N)NC(=O)[C@H](CO)NC(=O)[C@H](CC(C)C)NC(=O)[C@H](CC(=O)O)NC(=O)[C@H](CO)NC(=O)[C@@H](NC(=O)[C@H](Cc1ccccc1)NC(=O)[C@@H](NC(=O)CNC(=O)[C@H](CCC(N)=O)NC(=O)C(C)(C)NC(=O)[C@@H](N)Cc1c[nH]cn1)[C@@H](C)O)[C@@H](C)O)C(=O)N[C@@H](CC(=O)O)C(=O)N[C@@H](C)C(=O)N[C@@H](CCCNC(=N)N)C(=O)N[C@@H](CCCNC(=N)N)C(=O)N[C@@H](C)C(=O)N[C@@H](CCC(N)=O)C(=O)N[C@@H](CC(=O)O)C(=O)N[C@@H](Cc1ccccc1)C(=O)N[C@H](C(=O)N[C@@H](CCC(N)=O)C(=O)N[C@@H](Cc1c[nH]c2ccccc12)C(=O)N[C@@H](CC(C)C)C(=O)N[C@@H](CC(C)C)C(=O)N[C@@H](CCCCNC(=O)COCCOCCNC(=O)COCCOCCNC(=O)CC[C@H](NC(=O)CC[C@H](NC(=O)CC[C@H](NC(=O)CCCCCCCCCCCCCCCCC(=O)O)C(=O)O)C(=O)O)C(=O)O)C(=O)N[C@H](C(N)=O)[C@@H](C)O)C(C)C)	5.5 nM	0.9 nM	20 pM	3 pM
